Substrate in data set [1]: Nc1ncnc2c1ncn2[C@@H]1O[C@H](COP(=O)(O)OP(=O)(O)OP(=O)(O)O)[C@@H](O)[C@H]1O
Put plainly: purified protein, by the assay type.

Substrate in data set [2]: C[C@@H](O)[C@H](N)C(=O)O
As to the kind of experiment: LC-MS of AMP formed from TC-AMP, Michaelis-Menten. Format: biochemical, Homo sapiens. As to conditions: 250 µM ATP, 50 mM NaHCO3, 10 mM MgCl2, Tricine pH 8.5, 37 °C.

Consider four proteins from doi:10.64898/2025.12.03.692196v2.

B1: YRDCWT (human YRDC, ΔN43) (Homo sapiens; R253K) (protein)
chain: GARLLRLPGSGAVQAASPERAGWTEALRAAVAELRAGAVVAVPTDTLYGLACAASCSAALRAVYRLKGRSEAKPLAVCLGRVADVYRYCRVRVPEGLLKDLLPGPVTLVMERSEELNKDLNPFTPLVGIRIPDHAFMQDLAQMFEGPLALTSANLSSQASSLNVEEFQDLWPQLSLVIDGGQIGDGQSPECRLGSTVVDLSVPGKFGIIKPGCALESTTAILQQKYGLLPSHASYL
For orientation: Km means the substrate concentration at which the rate is half of its maximum. The term kcat denotes the number of substrate molecules converted per active site and unit of time at saturation. The kcat/Km is the second-order rate constant that governs catalysis at low substrate concentration. In the case of B1, in data set [1], the Km came to 737.5 ± 521.2 µM, the kcat was determined as 0.005 ± 0.003 s⁻¹ and the kcat/Km turned out to be 7 ± 6 M⁻¹ s⁻¹.

B2: YRDCWT (human YRDC, ΔN43) (Homo sapiens) (protein)
chain: GARLLRLPGSGAVQAASPERAGWTEALRAAVAELRAGAVVAVPTDTLYGLACAASCSAALRAVYRLKGRSEAKPLAVCLGRVADVYRYCRVRVPEGLLKDLLPGPVTLVMERSEELNKDLNPFTPLVGIRIPDHAFMQDLAQMFEGPLALTSANLSSQASSLNVEEFQDLWPQLSLVIDGGQIGDGQSPECRLGSTVVDLSVPGKFGIIRPGCALESTTAILQQKYGLLPSHASYL
With B2, the Km in data set [2] is 7800 µM.

B3: YRDCWT (human YRDC, ΔN43) T89A (Homo sapiens; T89A) (protein)
chain: MSPARRCRGMRAAVAASVGLSEGPAGSRSGRLFRPPSPAPAAPGARLLRLPGSGAVQAASPERAGWTEALRAAVAELRAGAVVAVPTDALYGLACAASCSAALRAVYRLKGRSEAKPLAVCLGRVADVYRYCRVRVPEGLLKDLLPGPVTLVMERSEELNKDLNPFTPLVGIRIPDHAFMQDLAQMFEGPLALTSANLSSQASSLNVEEFQDLWPQLSLVIDGGQIGDGQSPECRLGSTVVDLSVPGKFGIIRPGCALESTTAILQQKYGLLPSHASYL
With B3, in data set [1], the Km was determined as 230.7 ± 217.6 µM, the kcat stood at 0.02 ± 0.001 s⁻¹ and the kcat/Km is 90 ± 80 M⁻¹ s⁻¹.

B4: YRDCS195A (Homo sapiens; S238A) (protein)
chain: MSPARRCRGMRAAVAASVGLSEGPAGSRSGRLFRPPSPAPAAPGARLLRLPGSGAVQAASPERAGWTEALRAAVAELRAGAVVAVPTDTLYGLACAASCSAALRAVYRLKGRSEAKPLAVCLGRVADVYRYCRVRVPEGLLKDLLPGPVTLVMERSEELNKDLNPFTPLVGIRIPDHAFMQDLAQMFEGPLALTSANLSSQASSLNVEEFQDLWPQLSLVIDGGQIGDGQSPECRLGATVVDLSVPGKFGIIRPGCALESTTAILQQKYGLLPSHASYL
Consider B4, for which, in data set [1], the Km came out at 711.8 ± 175.5 µM, the kcat was determined as 0.005 ± 0.0009 s⁻¹ and the kcat/Km worked out at 7 ± 2 M⁻¹ s⁻¹.
